Laboratory results: the supplement of paper PMC10567573

B1: NETO1 (parent)
chain: KTSLLDQLTNTSGTVIGVTSCIVI
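Also: lentivirally expressed fusions sorted by FACS into six bins by GFP to DsRed ratio, PSI derived from sequencing read proportions per bin multiplied by bin number.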

Variants of: B1
Assay: protein stability index of a GFP-peptide fusion (GPS, HEK-293T) (PSI 1-6); higher = more stable
Details: c terminus: a fixed tail appended
KTSLLDNLTNTSGTVIGVTSCIVI gave a protein stability index of 3.77. Work on KTSLLDVLTNTSGTVIGVTSCIVI yielded a protein stability index of 3.45. In the case of KTSLLDTLTNTSGTVIGVTSCIVI, the protein stability index is reported as 2.05. KTSLLDGLTNTSGTVIGVTSCIVI showed a protein stability index of 3.62. Variant KTSLLDILTNTSGTVIGVTSCIVI has a protein stability index of 2.08. Work on KTSLLDWLTNTSGTVIGVTSCIVI yielded a protein stability index of 2.18. With KTSLLDQLTNTSGTQIGVTSCIVI the protein stability index was 2.33. For KTSLLDQLTNTSGTRIGVTSCIVI, the protein stability index was 2.45. KTSLLDQLTNTSGTSIGVTSCIVI gave a protein stability index of 2.96. Work on KTSLLDQLTNTSGTWIGVTSCIVI yielded a protein stability index of 2.59. In the case of KTSLLDQLTNTSGTKIGVTSCIVI, the protein stability index is reported as 3.5. For KTSLLDQLTNTSGTAIGVTSCIVI, the protein stability index was 2.65. For KTSLLDQLTNTSGTPIGVTSCIVI, the protein stability index was 3.31. KTSLLDQLTNTSGTDIGVTSCIVI gave a protein stability index of 3.39. Work on KTSLLDQLTNTSGTFIGVTSCIVI yielded a protein stability index of 2.44. KTSLLDQLTNTSGTVIGVTSCMVI gave a protein stability index of 3.35. KTSLLDQLTNTSGTVIGVTSCEVI gave a protein stability index of 2.32. In the case of KTSLLDQLTNTSGTVIGVTSCFVI, the protein stability index is reported as 2.56. With KTSLLDQLTNTSGTVIGVTSCPVI the protein stability index was 2.37. In the case of KTSLLDQLTNTSGTVIGVTSCCVI, the protein stability index is reported as 3.54. KTSLLDQLTNTSGTVIGVTSCLVI gave a protein stability index of 2.08. In the case of KTSLLDQLTNTSGTVIGVTSCHVI, the protein stability index is reported as 2.1. KTSLLDQLTNTSGTVIGVTSCTVI showed a protein stability index of 3.07. With KTSLLDQLTNTSGTVIGVTSCVVI the protein stability index was 3.37. In the case of KTSLLDQLTNTSGTVIGVTSCYVI, the protein stability index is reported as 2.81. For KHSLLDQLTNTSGTVIGVTSCIVI, the protein stability index was 2.98. KASLLDQLTNTSGTVIGVTSCIVI showed a protein stability index of 3.1. KQSLLDQLTNTSGTVIGVTSCIVI gave a protein stability index of 2.94. KTSKLDQLTNTSGTVIGVTSCIVI gave a protein stability index of 2.57. Work on KTSHLDQLTNTSGTVIGVTSCIVI yielded a protein stability index of 3.14. With KTSVLDQLTNTSGTVIGVTSCIVI the protein stability index was 3.28. With KTSRLDQLTNTSGTVIGVTSCIVI the protein stability index was 2.34. KTSCLDQLTNTSGTVIGVTSCIVI gave a protein stability index of 2.08. Work on KTSQLDQLTNTSGTVIGVTSCIVI yielded a protein stability index of 3.64. KTSLLDQLTNTLGTVIGVTSCIVI showed a protein stability index of 2.43. With KTSLLDQLTNTEGTVIGVTSCIVI the protein stability index was 2.87. KTSLLDQLTNTMGTVIGVTSCIVI showed a protein stability index of 1.87. Work on KTSLLDQLTNTKGTVIGVTSCIVI yielded a protein stability index of 2.89. With FTSLLDQLTNTSGTVIGVTSCIVI the protein stability index was 3.08. In the case of PTSLLDQLTNTSGTVIGVTSCIVI, the protein stability index is reported as 3.02. In the case of QTSLLDQLTNTSGTVIGVTSCIVI, the protein stability index is reported as 2.81. In the case of LTSLLDQLTNTSGTVIGVTSCIVI, the protein stability index is reported as 2.67. For YTSLLDQLTNTSGTVIGVTSCIVI, the protein stability index was 2.37. ETSLLDQLTNTSGTVIGVTSCIVI gave a protein stability index of 3.07. Variant KTSLLDQLTNTSGTVIGVTSKIVI has a protein stability index of 3.29. With KTSLLDQLTNTSGTVIGVTSAIVI the protein stability index was 2.7. Work on KTSLLDQLTNTSGTVIGVTSQIVI yielded a protein stability index of 3.44. KTSLLDQLTNTSGTVIGVTSIIVI showed a protein stability index of 2.7. Work on KTSLLDQLTNTSGTVIGVTSVIVI yielded a protein stability index of 3.29. KTSLLDQPTNTSGTVIGVTSCIVI showed a protein stability index of 2.5. KTSLLDQMTNTSGTVIGVTSCIVI showed a protein stability index of 2.83. Work on KTSLLDQGTNTSGTVIGVTSCIVI yielded a protein stability index of 2. With KTSLLDQATNTSGTVIGVTSCIVI the protein stability index was 2.76. Variant KTSLLDQVTNTSGTVIGVTSCIVI has a protein stability index of 3.52. Variant KTSLLDQQTNTSGTVIGVTSCIVI has a protein stability index of 3.09. In the case of KTSLLDQETNTSGTVIGVTSCIVI, the protein stability index is reported as 2.35. Variant KTSLLDQITNTSGTVIGVTSCIVI has a protein stability index of 3.38. KTSLLDQRTNTSGTVIGVTSCIVI gave a protein stability index of 3.04. With KTSLLDQLTNTSGTVIGMTSCIVI the protein stability index was 3.92. With KTSLLDQLTNTSGTVIGETSCIVI the protein stability index was 2.2. In the case of KTSLLDQLTNTSGTVIGGTSCIVI, the protein stability index is reported as 3.24. KTSLLDQLTNTSGTVIGYTSCIVI gave a protein stability index of 3.56. In the case of KTSLLDQLTNTSGTVIGFTSCIVI, the protein stability index is reported as 2.48. With KTSLLDQLANTSGTVIGVTSCIVI the protein stability index was 2.1. For KTSLLDQLPNTSGTVIGVTSCIVI, the protein stability index was 2.6. KTSLLDQLDNTSGTVIGVTSCIVI showed a protein stability index of 2.58. In the case of KTSLLDQLGNTSGTVIGVTSCIVI, the protein stability index is reported as 2.29. Variant KTSLLDQLSNTSGTVIGVTSCIVI has a protein stability index of 2.72. For KTSLLDQLYNTSGTVIGVTSCIVI, the protein stability index was 3.55. Work on KTSLLDQLVNTSGTVIGVTSCIVI yielded a protein stability index of 2.63. For KTSLLDQLCNTSGTVIGVTSCIVI, the protein stability index was 3.21. Work on KTSLLDQLINTSGTVIGVTSCIVI yielded a protein stability index of 2.33. Variant KTSLLDQLTNTSGTVIGVTQCIVI has a protein stability index of 2.53. In the case of KTSLLDQLTNTSGTVIGVTDCIVI, the protein stability index is reported as 2.83. With KTSLLDQLTNTSGTVIGVTICIVI the protein stability index was 3.08. With KTSLLDQLTNTSGTVIGVTFCIVI the protein stability index was 2.87. KTSLLDQLTNTSGTVIGVTTCIVI showed a protein stability index of 2.37. KTSLLDQLTNTSGTVIGVTMCIVI gave a protein stability index of 2.89. With KTSLLDQLTNTSGTVIGVTCCIVI the protein stability index was 2.91. KTSLLDQLTNTSGTVIGVTKCIVI showed a protein stability index of 3.19. KTSLLAQLTNTSGTVIGVTSCIVI showed a protein stability index of 3.62. For KTSLLIQLTNTSGTVIGVTSCIVI, the protein stability index was 3.8. For KTSLLGQLTNTSGTVIGVTSCIVI, the protein stability index was 2.31. For KTSLLNQLTNTSGTVIGVTSCIVI, the protein stability index was 2.37. Variant KTSLLYQLTNTSGTVIGVTSCIVI has a protein stability index of 3.38. Work on KTSLLPQLTNTSGTVIGVTSCIVI yielded a protein stability index of 1.82. In the case of KTILLDQLTNTSGTVIGVTSCIVI, the protein stability index is reported as 3.45. Variant KTLLLDQLTNTSGTVIGVTSCIVI has a protein stability index of 2.17. KTVLLDQLTNTSGTVIGVTSCIVI gave a protein stability index of 2.39. For KTWLLDQLTNTSGTVIGVTSCIVI, the protein stability index was 2.56. For KTGLLDQLTNTSGTVIGVTSCIVI, the protein stability index was 1.92. KTALLDQLTNTSGTVIGVTSCIVI gave a protein stability index of 3.59. In the case of KTFLLDQLTNTSGTVIGVTSCIVI, the protein stability index is reported as 2.59. With KTCLLDQLTNTSGTVIGVTSCIVI the protein stability index was 3.27.
